# Results reported in the DeepSol protein solubility set.
# Test: soluble on expression in E. coli; label from the status in PepcDB or PDB records
row,Sequence,soluble on expression in E. coli
1,MAGEKAQKKGKEKWKEKTWYTVESPPYLGSKEVTVALGEDPESMVNRIVEVPISDLTGNFKKSNEKALFRITGCEGTKCKTIFIGHYIGDDYIRRLVRRRKERIDIIEDVKTSDGSIITVKIVVVSDGKLTNTKKSEIRKALTSFIVSKGSQLSYADFVRYLIGDDSYNDMVEATKNIYPLRKIEIRKSELVSLSGMQEPQKNEPAPGGEAIAQNLEHHHHHH,soluble
2,MGSDKIHHHHHHMTRTSPTHAKLAQPIVHAPGLFHSLAPGERKRDKLDVTHVAGDTTVRFVGFEPLDSTDLRVLQGLIALATAGLRNIRRLLRDGQSLRTSLDLKGDAQDERTVAARFTLASLADMAGFDRGGFGCRQMRASLQRLSNVTVLVDRPEFEGAFRLVSGYRLDKHTGELVVSISPLGTTAILGRQGYLRLNMDEVRRIHGEVAHLIHSRLHWVNQGDRRPVNMDTLCSYAYVGVRTGSALRKRRMAVRQALKELMDVGWTVTEKYPGTYLIGRPRRASDQGELVTRAGVNW,not soluble
3,MGSDKIHHHHHHMDNKKPKIITIASIKGGVGKSTSAIIMATLLAKEHKVLLIDMDTQASTTSYFYKEILNQNIDIVKINVYRVLKEKIDINDSIVKIKENLDLIPSYLTLNKFLSESIPLKELRLQNNLEFLKRRYHYVIIDTNPSLDYTLSNALMTSNCIIVPMTAEKWAVESLELLEFHMNNLKIKIPIFLVITRFKKNNTHKQLLQHVESKTGFLGFIHEREDLNKKIAKNEEFDMTKDYINEYKGVLSRFLIVYDEYVK,not soluble
4,MGSDKIHHHHHHMMQTDQRILLVGTPSERLSRLCCIFEFLGEQIDIITIEKLSTCLQETRFRALVISIDNMSADALKLVASQYPWQPILLFGHVGELQVSNVLGHIEEPLNYPQLTELLHFCQVYGQVKRPQVPTSANQTKLFRSLVGRSDGIANVRHLISQVATSDATVLVLGQSGTGKEVVARNIHYLSERRDGPFIPVNCGAIPPELLESELFGHEKGSFTGAISSRKGRFELAEGGTLFLDEIGDMPLQMQVKLLRVLQERVFERVGGTKTINADVRVVAATHRDLETMISSNEFREDLYYRLNVFPIEMPALSERKDDVPLLLQELVSRVYNEGRGKVRFTQRAIESLKEHAWSGNVRELSNLVERLTILYPGGLVDVNDLPIKYRHIDVPEYSVELSEEQQERDALASIFTSEEPVEIPETRFPSELPPEGVNLKDLLAELEIDMIRQALEQQDNVVARAAEMLGIRRTTLVEKMRKYGMTKE,not soluble
5,MQQQGWRTYLYDAEQPYTPVASVTGKGESRQVWYYHTDVTGTPQEVTAADGTLVWAGYIKGFGENAADISNSGAYFHQPLRLPGQYFDDETGLHYNLFRYYAPECGRFVSQDPIGLAGGLNLYQYAPNPIRWIDPLGLAILEHQSNFDAARRTGFENAGMTNPEDVTFSKVDPKTGTVVEFKGPNGAKVAYDAPHADMDVTAGHDKPHVGWQSAGKRGSGGANRGNITYDGPQHPHRSDSKGDDKCLEHHHHHH,not soluble
6,MGSDKIHHHHHHADTASFLFDKYEDAQVLLRAGGELKSKMNYSIVVNKFYFIDPQDKQVKELANPGDILLIKIAGRTFYPESNGAGIEMLPTKPVVYVQYKATARKEAPMGAYGTRSETTAVQSYGTITSNGQSYKLEGEKIIVSNRHHVYWVEKDDKMKQFRNFKQLAKIYSKHRAEVEKYIEDNKVNFEDVDQIVKLCAYADSLK,not soluble
7,MKKGHHHHHHGSQYNPQVADLKAFSKHIYNAYLKNFNMTKKKARSILTGKASHTAPFVIHDIETLWQAEKGLVWKQLVNGLPPYKEISVHVFYRCQCTTVETVRELTEFAKSIPSFSSLFLNDQVTLLKYGVHEAIFAMLASIVNKDGLLVANGSGFVTREFLRSLRKPFSDIIEPKFEFAVKFNALELDDSDLALFIAAIILCGDRPGLMNVPRVEAIQDTILRALEFHLQANHPDAQYLFPKLLQKMADLRQLVTEHAQMMQRIKKTETETSLHPLLQEIYKDMY,soluble
8,GYTLWNDQIVKDEEVKIDKEDRGYQFGDGVYEVVKVYNGEMFTVNEHIDRLYASAEKIRITIPYTKDKFHQLLHELVEKNELNTGHIYFQVTRGTSPRAHQFPENTVKPVIIGYTKENPRPLENLEKGVKATFVEDIRWLRCDIKSLNLLGAVLAKQEAHEKGCYEAILHRNNTVTEGSSSNVFGIKDGILYTHPANNMIAKGITRDVVIACANEINMPVKEIPFTTHEALKMDELFVTSTTSEITPVIEIDGKLIRDGKVGEWTRKLQKQFETKIPKPLHI,soluble
9,MGSDKIHHHHHHMRKKIVFIIRDLGYGGAQRQLITLVKNLDKQIFNTTVIFFYANGSLQKDLENNNIQTICLEKRGRWDIFGFLWRLMGHLKRIQPDSLHGYLSESNLLTIFLKPFFLSTSIIWGIRDSNISLDSYDWLDRLIFEIECLLSRFVDLIIVNSHAGQAYHLSHGFPAKKMVVIPNGIDTERFQPNSEAGLRVRTEWRISKDTILIGLIGRLDPMKDHPTFLKAVALLCKERENVCFVCVGIGTHEYAQELYQLAEELEVAEKVIWAGGRADMPDIYNALDITCSSSSYGEGFSNVIGEAMACGVPCVVTDVGDSAWIIDDTGIVVPPNNPEALKAGITSLINIISSKSYSSCHIRQRIISHFSVLNLSLKTQNSLLSINVL,not soluble
10,MLNSLEAYNENKFIVFGINDNKEIIGLEKNMFDDAHYQNIIDEYINPRPKIETGQIEYNDEKIGYIAINSNNLETPYELKKELRIKKSKSSLSKGLSFIRKGSTNTPIIQEEREKLILKKTEKNPNNKNLFTALNQKNHAIEEIYYKDNKKSGRKKLDPSNNNGRFTIGELSYEFEMILDVASNEIARIMKTDTIKVARIKNYKDNDIYYELQENLKSPNEVVKKLDTSSRSRDFTLKDLGILINKHGRIAEIFFKEIKSESHGSEENIVEIEWNIPDTKLEHHHHHH,not soluble
11,MAHHHHHHMKKNFPQSYNFFPLTWILPNEISDFKNYFKKESGSKTYIVKLKNSCQGKGIYLTKTLDNINKYDSCVIQKYIHKPLLINGLKFDIRLYVLVTGCDPLRIFLHEDGLVRFSIEKYKLPKSKNLKQVNMHLTNFSINKKSDKFENSPNPDDATMGHKRSWKAFLQKLKEEGLPMDSVMKRIEHMIVKTICSIQPELKHYYNSAHISDYSNSMCFEVLGFDILLDYKLKPWLLEVNHSPSFATSSLVDEKVKYAVIRDTLNMLYMHSKYRHIHIQEYLNLQKFRKKYSDVL,not soluble
12,MMRRTLENRNAQTKQLQTAVSNVEKHFGELCQIFAAYVRKTARLRDKADLLVNEINAYAATETPHLKLGLMNFADEFAKLQDYRQAEVERLEAKVVEPLKTYGTIVKMKRDDLKATLTARNREAKQLTQLERTRQRNPSDRHVISQAETELQRAAMDASRTSRHLEETINNFERQKMKDIKTIFSEFITIEMLFHGKALEVYTAAYQNIQNIDEDEDLEVFRNSLYAPDYSSRLDIVRANSKSPLQRSLSAKCVSGTGQEAGWAATCQTLI,soluble
13,MSLRHGIQAVFLIEKISKCNSLESLSLLVKERQAVFEAMIESHLPANVIGQVLMMIYDAFTCRLIKLAERNVGLPPCNYAWLAAGSHARGEVHLGSDQDNALVLDDSATESDRIYFRHFAMYICKGLAECGYPLCNGRFMAATPKWNQPLFIWKQLYRKWANNPEYNMLLNLNVFLEVRFISGDRSLFDELNSERERCTKNNPHLIAALVRNLISHRPPLGIFNNLVLENNGHNEKSLNIKKSAIGLLVDIARIYALHKGGGMLSTEERFDFAYDRGLINSTSHQDLIGTYRYVTQLRYSHQLQCLQGGKPVTNAIFPEHFGSFERQHLKDAFRIIRGYQDTLKMKFGSEGHHHHHH,soluble
